The chains are these.
T1: myostatin (UniProt O14793 267-375)
T1 sequence (looked up): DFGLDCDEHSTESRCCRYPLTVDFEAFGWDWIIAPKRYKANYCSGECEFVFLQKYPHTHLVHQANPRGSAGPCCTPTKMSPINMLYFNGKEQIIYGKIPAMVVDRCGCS

B1: BMP-6 (ligand, UniProt P22004 382-513, looked up)
chain: QQSRNRSTQSQDVARVSSASDYNSSELKTACRKHELYVSFQDLGWQDWIIAPKGYAANYCDGECSFPLNAHMNATNHAIVQTLVHLMNPEYVPKPCCAPTKLNAISVLYFDDNSNVILKKYRNMVVRACGCH
B2: BMP-7 (ligand, UniProt P18075 293-431, looked up)
chain: STGSKQRSQNRSKTPKNQEALRMANVAENSSSDQRQACKKHELYVSFRDLGWQDWIIAPEGYAAYYCEGECAFPLNSYMNATNHAIVQTLVHFINPETVPKPCCAPTQLNAISVLYFDDSSNVILKKYRNMVVRACGCH
B3: activin (ligand, UniProt P08476 311-426, looked up)
chain: GLECDGKVNICCKKQFFVSFKDIGWNDWIIAPSGYHANYCEGECPSHIAGTSGSSLSFHSTVINHYRMRGHSPFANLKSCCVPTKLRPMSMLYYDDGQNIIKKDIQNMIVEECGCS
notes: also called activin A
B4: sActRIIB-hFc (Fc fusion, UniProt Q13705 25-134, looked up)
chain: ETRECIYYNANWELERTNQSGLERCEGEQDKRLHCYASWRNSSGTIELVKKGCWLDDFNCYDRQECVATEENPQVYFCCCEGNFCNERFTHLPEAGGPEVTYEPPPTAPT
notes: Control protein in the Biacore assay; also called sActRTIB-hFc; sActRIIB-Fc; not shown: human Fc
B5: BMP-4 (ligand, UniProt P12644 293-408, looked up)
chain: SPKHHSQRARKKNKNCRRHSLYVDFSDVGWNDWIVAPPGYQAFYCHGDCPFPLADHLNSTNHAIVQTLVNSVNSSIPKACCVPTELSAISMLYLDEYDKVVLKNYQEMVVEGCGCR
B6: BMP-9 (ligand, UniProt Q9UK05 320-429, looked up)
chain: SAGAGSHCQKTSLRVNFEDIGWDSWIIAPKEYEAYECKGGCFFPLADDVTPTKHAIVQTLVHLKFPTKVGKACCVPTKLSPISVLYKDDMGVPTLKYHYEGMSVAECGCR
B7: FS315 (R&D Systems) (other)
chain: GNCWLRQAKNGRCQVLYKTELSKEECCSTGRLSTSWTEEDVNDNTLFKWMIFNGGAPNCIPCKETCENVDCGPGKKCRMNKKNKPRCVCAPDCSNITWKGPVCGLDGKTYRNECALLKARCKEQPELEVQYQGRCKKTCRDVFCPGSSTCVVDQTNNAYCVTCNRICPEPASSEQYLCGNDGVTYSSACHLRKATCLLGRSIGLAYEGKCIKAKSCEDIQCTGGKKCLWDFKVGRGRCSLCDELCPDSKSDEPVCASDNATYASECAMKEAACSSGVLLEVKHSGSCNSISEDTEEEEEDEDQDYSFPISSILEW
B8: BMP-2 (ligand, UniProt P12643 283-396, looked up)
chain: QAKHKQRKRLKSSCKRHPLYVDFSDVGWNDWIVAPPGYHAFYCHGECPFPLADHLNSTNHAIVQTLVNSVNSKIPKACCVPTELSAISMLYLDENEKVVLKNYQDMVVEGCGCR
B9: GDF-11 (ligand, UniProt O95390 299-407, looked up)
chain: NLGLDCDEHSSESRCCRYPLTVDFEAFGWDWIIAPKRYKANYCSGQCEYMFMQKYPHTHLVQQANPRGSAGPCCTPTKMSPINMLYFNDKQQIIYGKIPGMVVDRCGCS
B10: follistatin-Fc human chimera FS315-hFc (Sino Biological Inc. Catalog Number 10685-H02H) (Fc fusion)
chain: GNCWLRQAKNGRCQVLYKTELSKEECCSTGRLSTSWTEEDVNDNTLFKWMIFNGGAPNCIPCKETCENVDCGPGKKCRMNKKNKPRCVCAPDCSNITWKGPVCGLDGKTYRNECALLKARCKEQPELEVQYQGRCKKTCRDVFCPGSSTCVVDQTNNAYCVTCNRICPEPASSEQYLCGNDGVTYSSACHLRKATCLLGRSIGLAYEGKCIKAKSCEDIQCTGGKKCLWDFKVGRGRCSLCDELCPDSKSDEPVCASDNATYASECAMKEAACSSGVLLEVKHSGSCNSISEDTEEEEEDEDQDYSFPISSILEWALEVLFQGP
notes: Bought fusion protein; also called Sino Biological FS315-hFc; not shown: human Fc of the bought product
B11: BMP-10 (ligand, UniProt O95393 317-424, looked up)
chain: NAKGNYCKRTPLYIDFKEIGWDSWIIAPPGYEAYECRGVCNYPLAEHLTPTKHAIIQALVHLKNSQKASKACCVPTKLEPISILYLDKGVVTYKFKYEGMAVSECGCR

In test [1] the target is B7. Briefly: Biacore SPR, 25 C; FS315 immobilized on CM5 chip, ligand as soluble analyte. The text has this:
(§1) Specifically, commercially available follistatins (FS315, manufactured by R&D Systems and follistatin-Fc human chimera FS315-hFc, manufactured by Sino Biological), and FS315-GAG3-mFc fusion proteins were used to assess binding affinity and kinetics to activin, myostatin, and BMPs using Biacore assays. Briefly, FS315 was immobilized onto a CM5 chip, and follistatin-Fc fusion proteins were captured using human or mouse antibody capture kits (GE Healthcare). Post amine-coupling, a concentration series of activin, myostatin, or BMPs (e.g., BMP-2, -4, -6, -7, -9, -10, and GDF-1) was added as soluble analyte at 25° C. sActRTIB-hFc was used as a control. Binding affinities (Kd) and kinetics were determined using standard methods.
On the technique in general: Surface plasmon resonance follows binding to a sensor surface in real time, without labels.

For test [2], the target named is B10. Briefly: Biacore SPR, 25 C; Fc fusion captured with human antibody capture kit, ligand as soluble analyte.
Description: as §1

Test [3] addresses B7. Briefly: Biacore SPR, 25 C; FS315 immobilized on CM5 chip, ligand as soluble analyte; FS315 (R&D Systems, no Fc) amine-coupled to CM5 chip; activin as soluble analyte; 25 C.
Description: as §1

The target of test [4] is B6. Nature of the test: cell-based or functional assay.
The target in test [5] is B8. Nature of the test: Biacore SPR, 25 C; Fc fusion captured with antibody capture kit, ligand as soluble analyte.
Description: as §1

For test [6], the target named is B6. Nature of the test: Biacore SPR, 25 C; Fc fusion captured with human antibody capture kit, ligand as soluble analyte.
Description: as §1

In test [7] the target is B3. Described as above.
Description: as §1

The target in test [8] is B5. Described as above.
Description: as §1

The target of test [9] is B1. Described as above.
Description: as §1

Test [10] deals with B2. The test is described as above.
Description: as §1

Test [11] addresses B10. Nature of the test: Biacore SPR, 25 C; Fc fusion captured with antibody capture kit, ligand as soluble analyte.
Description: as §1

In test [12] the target is T1, myostatin. Briefly: cell-based or functional assay.
Test [13] concerns the target B3. Briefly: cell-based or functional assay.
Test [14] addresses T1, myostatin. Briefly: cell-based or functional assay. This is another data set of the same source.
For test [15], the target named is B4. Briefly: Biacore SPR, 25 C; Fc fusion captured with human antibody capture kit, ligand as soluble analyte.
Description: as §1

In test [16] the target is T1, myostatin. Briefly: Biacore SPR (Table 3).
Description: as §1

Test [17] deals with B7. Briefly: Biacore SPR, 25 C; FS315 immobilized on CM5 chip, ligand as soluble analyte; Table 3 cell for this pair: fitted KD, FS315 immobilized on CM5, BMP-10 as analyte, 25 C.
Description: as §1

Broadly, the Kd is the equilibrium constant for the complex coming apart. A lower Kd goes with a tighter complex. For B1, the results for the Kd in test [1] and in [2] were 0.36 nM and 0.9 nM, respectively.

In the case of B2, the dissociation constant (Kd) in [1] turned out to be 38 nM. This lies in the double-digit nanomolar range.

As to B3, the Kd stood at 0.19 nM in test [2] and 0.73 nM in test [3].

Consider B4, for which the “IC50 (read off the curve); BRE-luciferase reporter in HEK293 cells, BMP-9-induced Smad1/5/8 signalling” value in test [4] was around 20 nM. Also, the binding result in [5] is listed as “no binding”. Besides, the Kd in [6] turned out to be 0.054 nM; in test [7], 0.07 nM; in test [8], 130 nM; in test [9], 0.057 nM; in [10], 1.1 nM.

Consider B5, for which, in [1], the Kd came out at 14 nM.

For B6, the binding result in [1] and in [11] was “no binding” in each case.

Turning to B7, in test [12], the “IC50, CAGA-luciferase reporter assay for Smad2/3 signaling (1.2 nM myostatin)” value was 0.45 nM. Moreover, the “IC50, CAGA-luciferase reporter assay for Smad2/3 signaling (1.2 nM activin)” value in test [13] is 0.4 nM. Also, in test [14], the “IC50 (read off the curve); CAGA-luciferase reporter in HEK293 cells, myostatin (1.2 nM)-induced Smad2/3 signalling” value was around 0.2 nM.

As for B8, in test [1], binding was put at a Kd of 440 nM. Also, the binding result in [11] is reported as “no binding”.

On to B9, for which the results for the dissociation constant Kd in test [2] and in [15] were 0.82 nM and 0.34 nM, respectively.

Consider B10, for which, in [16], the “fold increase of binding affinity against follistatin (FS315)” value was at least 10 fold. Besides, in test [12], the “IC50, CAGA-luciferase reporter assay for Smad2/3 signaling (1.2 nM myostatin)” value is 2.99 nM. In addition, the “IC50, CAGA-luciferase reporter assay for Smad2/3 signaling (1.2 nM activin)” value in [13] is 2.9 nM.

Take B11: the Kd in test [2] was found to be 150 nM; in test [15], 0.01 nM; in [17], 100 nM.

The record behind these values is patent US20180305421A1 (SHIRE HUMAN GENETIC THERAPIES, published 2018).
